Test [1] has as its target T1, human MSLN-R3-3 polypeptide (human).
T1 construct: also called human MSLN-R3-3 protein; hMSLN-R3-3
In words: ELISA on coated antigen, no antibody (column none). Background: An ELISA detects its analyte on a solid surface through an enzyme-linked reagent.
Experimental: (§1) The plate was sealed with a plastic film and incubated at 4° C. overnight. The next day, the plate was washed twice with PBST, and a blocking buffer [PBS+2% (w/w) BSA] was added for blocking at room temperature for 2 h. The blocking buffer was discarded, and a chimeric antibody or negative control antibody serially diluted from 100 nM was added at 50 μL/well. After incubation at 37° C. for 2 h, the plate was washed 3 times with PBST. […] After incubation at 37° C. for 2 h, the plate was washed 5 times with PBST. A TMB substrate was added at 50 μL/well for incubation at room temperature for 5-10 min, and then a stop solution (1.0 N HCl) was added at 50 μL/well.

For test [2], the target named is T2, human MSLN-R2-his protein (human, UniProt Q13421 391-486).
T2 construct: Self-made in HEK293E cells; also called human MSLN-R2 protein; hMSLN-R2-his; not shown: His tag
In words: ELISA on coated antigen, antibody 10 nM.

For test [3], the target named is T2, human MSLN-R2-his protein. The test can be described thus: ELISA on coated antigen, no antibody (column none).
Experimental: as §1
Test [4] addresses T1, human MSLN-R3-3 polypeptide. In words: ELISA on coated antigen, antibody 0.0001 nM.
Experimental: as §1
The target of test [5] is T3, human MSLN-R3-his protein (human, UniProt Q13421 487-598).
T3 construct: Self-made in HEK293E cells; also called human MSLN-R3 protein; hMSLN-R3-his; not shown: His tag
T3 sequence (Q13421 495-606): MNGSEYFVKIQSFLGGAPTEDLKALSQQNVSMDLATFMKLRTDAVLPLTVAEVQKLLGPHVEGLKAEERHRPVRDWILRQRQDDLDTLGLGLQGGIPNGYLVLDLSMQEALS
In words: ELISA on coated antigen, antibody 10 nM.

The target in test [6] is T1, human MSLN-R3-3 polypeptide. In words: ELISA on coated antigen, antibody 0.001 nM.
Experimental: as §1
In test [7] the target is T2, human MSLN-R2-his protein. The test can be described thus: ELISA on coated antigen, antibody 0.001 nM.
Experimental: as §1
Test [8] addresses T1, human MSLN-R3-3 polypeptide. The test can be described thus: ELISA on coated antigen, antibody 10 nM.
Experimental: as §1
The target is the same in test [9]. The test can be described thus: ELISA on coated antigen, antibody 0.01 nM.
Experimental: as §1
Test [10] has the same target. The test can be described thus: ELISA on coated antigen, antibody 100 nM.
Experimental: as §1
Test [11] deals with T3, human MSLN-R3-his protein. The test can be described thus: ELISA on coated antigen, antibody 0.0001 nM.
Experimental: as §1
Test [12] deals with T1, human MSLN-R3-3 polypeptide. The test can be described thus: ELISA on coated antigen, antibody 1 nM.
Experimental: as §1
Test [13] addresses T2, human MSLN-R2-his protein. The test can be described thus: ELISA on coated antigen, antibody 0.0001 nM.
Experimental: as §1
Test [14] has as its target T1, human MSLN-R3-3 polypeptide. The test can be described thus: ELISA on coated antigen, antibody 0.1 nM.
Experimental: as §1
Test [15] concerns the target T3, human MSLN-R3-his protein. The test can be described thus: ELISA on coated antigen, antibody 0.1 nM.
Experimental: as §1
In test [16] the target is T3, human MSLN-R3-his protein. In words: ELISA on coated antigen, antibody 1 nM.
Experimental: as §1
Test [17] deals with T2, human MSLN-R2-his protein. The test can be described thus: ELISA on coated antigen, antibody 1 nM.
Experimental: as §1
The target in test [18] is T3, human MSLN-R3-his protein. In words: ELISA on coated antigen, antibody 0.01 nM.
Experimental: as §1
Test [19] has as its target T3, human MSLN-R3-his protein. The test can be described thus: ELISA on coated antigen, antibody 100 nM.
Experimental: as §1
The target of test [20] is T3, human MSLN-R3-his protein. In words: ELISA on coated antigen, no antibody (column none).
Experimental: as §1
The target of test [21] is T2, human MSLN-R2-his protein. The test can be described thus: ELISA on coated antigen, antibody 100 nM.
Experimental: as §1
The target of test [22] is T2, human MSLN-R2-his protein. In words: ELISA on coated antigen, antibody 0.1 nM.
Experimental: as §1
In test [23] the target is T2, human MSLN-R2-his protein. The test can be described thus: ELISA on coated antigen, antibody 0.01 nM.
Experimental: as §1
The target in test [24] is T3, human MSLN-R3-his protein. The test can be described thus: ELISA on coated antigen, antibody 0.001 nM.
Experimental: as §1
In test [25] the target is T4, human MSLN-FL-his protein (human, UniProt Q13421 296-580).
T4 construct: Self-made in HEK293E cells; also called human MSLN full-length protein; hMSLN-FL-his; not shown: His tag
T4 sequence (Q13421 other isoform, or with tags, fused parts or gaps): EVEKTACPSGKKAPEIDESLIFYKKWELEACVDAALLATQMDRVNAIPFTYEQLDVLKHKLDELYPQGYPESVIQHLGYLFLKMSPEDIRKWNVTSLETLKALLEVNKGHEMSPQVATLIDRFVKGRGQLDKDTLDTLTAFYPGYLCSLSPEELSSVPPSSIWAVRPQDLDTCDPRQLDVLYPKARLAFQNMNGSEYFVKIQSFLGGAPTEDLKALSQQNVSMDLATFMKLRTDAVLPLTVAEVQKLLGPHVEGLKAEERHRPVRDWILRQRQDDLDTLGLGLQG
The test can be described thus: ELISA on coated antigen, antibody 10 nM.

In test [26] the target is T4, human MSLN-FL-his protein. In words: ELISA on coated antigen, antibody 100 nM.
Experimental: as §1
Test [27] deals with T5, human MSLN-R1-his protein (human, UniProt Q13421 296-390).
T5 construct: Self-made in HEK293E cells; also called human MSLN-R1 protein; hMSLN-R1-his; not shown: His tag
T5 chain: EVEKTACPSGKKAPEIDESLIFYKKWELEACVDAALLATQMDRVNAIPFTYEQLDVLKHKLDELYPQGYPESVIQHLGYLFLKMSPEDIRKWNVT
In words: ELISA on coated antigen, antibody 1 nM.

The target in test [28] is T5, human MSLN-R1-his protein. In words: ELISA on coated antigen, antibody 0.1 nM.
Experimental: as §1
For test [29], the target named is T4, human MSLN-FL-his protein. The test can be described thus: ELISA on coated antigen, antibody 1 nM.
Experimental: as §1
The target in test [30] is T5, human MSLN-R1-his protein. The test can be described thus: ELISA on coated antigen, antibody 100 nM.
Experimental: as §1
In test [31] the target is T5, human MSLN-R1-his protein. In words: ELISA on coated antigen, antibody 10 nM.
Experimental: as §1
Test [32] deals with T5, human MSLN-R1-his protein. The test can be described thus: ELISA on coated antigen, no antibody (column none).
Experimental: as §1
The target of test [33] is T4, human MSLN-FL-his protein. The test can be described thus: ELISA on coated antigen, no antibody (column none).
Experimental: as §1
For test [34], the target named is T5, human MSLN-R1-his protein. The test can be described thus: ELISA on coated antigen, antibody 0.001 nM.
Experimental: as §1
The target in test [35] is T4, human MSLN-FL-his protein. In words: ELISA on coated antigen, antibody 0.0001 nM.
Experimental: as §1
Test [36] addresses T4, human MSLN-FL-his protein. The test can be described thus: ELISA on coated antigen, antibody 0.001 nM.
Experimental: as §1
Test [37] concerns the target T5, human MSLN-R1-his protein. The test can be described thus: ELISA on coated antigen, antibody 0.0001 nM.
Experimental: as §1
The target in test [38] is T4, human MSLN-FL-his protein. The test can be described thus: ELISA on coated antigen, antibody 0.1 nM.
Experimental: as §1
The target in test [39] is T5, human MSLN-R1-his protein. The test can be described thus: ELISA on coated antigen, antibody 0.01 nM.
Experimental: as §1
Test [40] addresses T4, human MSLN-FL-his protein. In words: ELISA on coated antigen, antibody 0.01 nM.
Experimental: as §1

Residue numbers refer to the chain shown, from its start.

T2 sequence (Q13421 other isoform, or with tags, fused parts or gaps): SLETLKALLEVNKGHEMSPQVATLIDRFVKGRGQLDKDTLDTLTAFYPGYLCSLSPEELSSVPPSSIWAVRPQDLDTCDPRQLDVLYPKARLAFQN

B1: S009-F2.58.8 (antibody, human IgG1, kappa, V domains shown)
VH: QVQLLQSGAELAKPGASVKLSCKASGYTFTSYWVHWVKQRPGQGLEWIGYINPNSGYTKYNQKFKDKATLTADKSSSTAYMQLSSLTYEDSAVYYCADHYYGSSRDYFDYWGQGTTLTVSS
VL: QIVLTQSPAIMSASPGEKVTMTCSASSSVSYMYWYQQRPGSSPRLLIYDTSNLASGVPVRFSGSGSGTSYSLTISRMEAEDAATYYCQQWNSYPYTFGGGTKLEIKR
notes: Human-murine chimeric antibody: murine VH/VL on human IgG1 heavy and kappa light constant regions
With B1, the OD450 in test [1] turned out to be 0.06 OD450; in [2] it was 2.43 OD450; in test [3] it was 0.06 OD450; in test [4], 0.05 OD450; in [5], 0.05 OD450; in test [6], 0.06 OD450. Besides, the OD450 was found to be 0.06 OD450 in test [7]; 0.06 OD450 in test [8]; 0.06 OD450 in test [9]; 0.07 OD450 in [10]; 0.05 OD450 in test [11]; 0.06 OD450 in test [12]. Also, the OD450 was 0.05 OD450 in test [13]; 0.06 OD450 in test [14]; 0.05 OD450 in test [15]; 0.05 OD450 in [16]; 2.04 OD450 in test [17]; 0.05 OD450 in test [18]. Also, the OD450 in [19] amounted to 0.07 OD450; in test [20] it was 0.05 OD450; in test [21] it was 2.63 OD450; in test [22], 0.63 OD450; in test [23] it was 0.12 OD450; in test [24], 0.05 OD450.

B2: S009-F3.7.3 (antibody, human IgG1, kappa, V domains shown)
VH: EVNFEESGGGLVQPGGSMKLSCVASGFTFSNYWMNWVRQSPEKGLEWVAQIRLKSDNYATHYAESVKGRFTISRDDFKSSVYLQMNNLRAEDTGIYYCTVGTGGYWGQGTTLTVSS
VL: DIVLTQSPASLAMSLGKRATISCRASESVSIVGTNVIHWFQQKPGQPPKLLIYHASNLETGVPARFSGSGSGTDFTLTIDPVEEDDVAIYHCLQSRKIPWTFGGGTKLEIKR
notes: as for B1
As for B2, the OD450 in [25] turned out to be 0.08 OD450; in [26] it was 0.13 OD450; in [27], 0.07 OD450; in test [28], 0.07 OD450; in test [29], 0.07 OD450; in test [30], 0.12 OD450. Moreover, the OD450 in test [31] came out at 0.08 OD450; in test [32], 0.08 OD450; in test [33] it was 0.08 OD450; in [34] it was 0.07 OD450; in test [35], 0.06 OD450; in [36] it was 0.06 OD450. Further, the OD450 in test [37] came out at 0.07 OD450; in [38], 0.07 OD450; in test [39], 0.06 OD450; in test [40], 0.07 OD450.

B3: S009-F3.16.1 (antibody, human IgG1, kappa, V domains shown)
VH: B2 VH with N3K, T71S, F77S, T99S
VL: B2 VL with M13L, L15P, V32I, N35D, G72R, H91Y
notes: as for B1
For B3, the OD450 in test [25] was 0.11 OD450; in [26] it was 0.12 OD450; in test [27], 0.06 OD450; in [28], 0.07 OD450; in [29], 0.08 OD450; in test [30], 0.1 OD450. Moreover, the OD450 in [31] is 0.08 OD450; in test [32], 0.08 OD450; in test [33], 0.08 OD450; in test [34] it was 0.07 OD450; in [35], 0.06 OD450; in test [36], 0.06 OD450. For the same molecule, the OD450 was found to be 0.07 OD450 in test [37], 0.08 OD450 in [38], 0.06 OD450 in test [39] and 0.07 OD450 in test [40].

B4: S009-F2-56.12 (antibody, human IgG1, kappa, V domains shown)
VH: DVQLQESGPGMVKPSQSLSLTCTVTGYSITSGYDWHWIRHFPGNKLEWMGYISYSGSTNYNPSLKSRISITHDTSKNHFFLKLKSVTTEDTATYYCARGTGPDYWGQGTTLTVSS
VL: DIVMTQSQKFMSTSVGDRVSITCKASQNVRTAVAWYQQKPGQSPKALIHLPSNRHTGVPDRFTGSGSGTDFTLTISNVQSEDLADYFCLQHWNYPLTFGGGTKLEIKR
notes: as for B1
As to B4, the OD450 in test [1] is 0.07 OD450; in test [2], 0.07 OD450; in [3], 0.07 OD450; in test [4] it was 0.06 OD450; in test [5], 0.07 OD450; in test [6] it was 0.06 OD450. The OD450 in [7] was determined as 0.06 OD450; in test [8], 0.07 OD450; in [9], 0.05 OD450; in test [10], 0.14 OD450; in test [11] it was 0.05 OD450; in test [12], 0.06 OD450. Also, the OD450 was 0.06 OD450 in [13]; 0.06 OD450 in [14]; 0.05 OD450 in [15]; 0.06 OD450 in test [16]; 0.06 OD450 in test [17]; 0.05 OD450 in test [18]. In addition, the OD450 in test [19] came to 0.13 OD450; in [20] it was 0.06 OD450; in test [21], 0.17 OD450; in [22], 0.06 OD450; in test [23] it was 0.06 OD450; in [24] it was 0.05 OD450.
